Laboratory results as given in patent publication US20100184652A1 (NEW YORK BLOOD CENTER, published 2010).
Where no end group is shown, it is not given here. [ ]: non-standard residue; d: D form. pY = N[C@@H](Cc1ccc(OP(=O)(O)O)cc1)C(=O)O

Experiments:
biotinylated GST = molecular target: T1, biotinylated GST (UniProt P08515 1-218 = GST, biotinylated (sites not given)); assay: blot overlay with biotinylated GST
T1 construct: also called GST-B
Description: FIG. 2 is graphs and photographs of western blots showing the identification of the minimal binding region of c-Abl SH3 and SH2 domains in the N-terminus of Abi1. […] Recombinant GST fusion polypeptides containing the N-terminal terminal region of Abi1/Hsshb3p1 were separated on SDS polyacrylamide gels and transferred onto a nitrocellulose membrane. […] The top photograph was incubated with a biotinylated GST-Abl-SH3 domain (GST-Abl-SH3-B). No binding to biotinylated GST (GST-B) was observed (middle panel). […] Panels B-D show binding to the c-Abl SH2 domain. […] No binding to the GST protein alone was observed (not shown). RU, response unit.

GST protein alone = molecular target: T2, GST protein alone (UniProt P08515 1-218 = GST); assay: SPR (Biacore 3000), peptide-coupled chip
T2 construct: Control analyte in SPR; also called glutathione S-transferase
Description: The top photograph was incubated with a biotinylated GST-Abl-SH3 domain (GST-Abl-SH3-B). No binding to biotinylated GST (GST-B) was observed (middle panel). […] Panels B-D show binding to the c-Abl SH2 domain. […] No binding to the GST protein alone was observed (not shown). RU, response unit.
Surface Plasmon Resonance Assay. Surface plasmon resonance assay was performed using a Biacore 3000 instrument (BlAcore Inc., Piscataway, N.J.). Biotinylated 14-residue peptides, pY213 or Y213, were coupled to surface of streptavidin-coated (SA) biosensor chip (BIAcore Inc., Piscataway, N.J.). Binding reactions were done in HBS-EP buffer, containing 10 mM HEPES, pH 7.4, 150 mM NaCl, 3 mM EDTA, and 0.05% (v/v) surfactant P20. The surface was regenerated before each new injection using 50 mM NaOH and 1M NaCl. The Biacore instrument was programmed to perform a series of binding assays with increasing concentrations of GST Abl SH2 polypeptide over the same regenerated surface. Sensograms (plots of changes in response unit on the surface as a function of time) derived were analyzed using the software BIAeval 3.0.

T1 sequence (P08515 whole entry): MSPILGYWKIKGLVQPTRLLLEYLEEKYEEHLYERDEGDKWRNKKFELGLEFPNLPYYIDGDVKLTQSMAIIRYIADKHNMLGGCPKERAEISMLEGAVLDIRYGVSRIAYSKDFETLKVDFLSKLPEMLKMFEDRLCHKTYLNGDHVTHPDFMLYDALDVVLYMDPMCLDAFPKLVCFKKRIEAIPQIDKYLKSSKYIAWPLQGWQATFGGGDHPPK
T2 sequence (P08515 whole entry): as above

B1: GST fusion polypeptide of Abi1 N1-187 (other)
chain: MAELQMLLEEEIPSGKRALIESYQNLTRVADYCENNYIQATDKRKALEETKAYTTQSLASVAYQINALANNVLQLLDIQASQLRRMESSINHISQTVDIHKEKVARREIGILTTNKNTSRTHKIIAPANMERPVRYIRKPIDYTVLDDVGHGVKWLKAKHGNNQPARTGTLSRTNPPTQKPPSPPMS
notes: not shown: glutathione S-transferase (GST) from pGEX-2T
Biotinylated GST
  binding result: no binding

B2: pY213 peptide (14-residue Abi1 peptide containing phosphorylated tyrosine 213) (peptide)
peptide: VKPPTVPND[pY]MTSP
modifications: also: biotinylated (site not given here)
notes: Biotinylated and coupled to a streptavidin chip in SPR; also called phosphopeptide pY213
GST protein alone
  binding result: no binding

B3: GST fusion polypeptide of Abi1 N1-172 (other)
chain: MAELQMLLEEEIPSGKRALIESYQNLTRVADYCENNYIQATDKRKALEETKAYTTQSLASVAYQINALANNVLQLLDIQASQLRRMESSINHISQTVDIHKEKVARREIGILTTNKNTSRTHKIIAPANMERPVRYIRKPIDYTVLDDVGHGVKWLKAKHGNNQPARTGTLS
notes: as for B1
Biotinylated GST
  binding result: no binding
